Experiments:
[1] = Humira Drug Approval Package; cited from earlier work
[2] = test system: F9 murine teratocarcinoma; assay: Quantitative biodistribution of 125I-labeled protein in tumor-bearing mice; assay type: in vivo; conditions: i.v., 24 h
[3] = target: T1, IL-17A (Homo sapiens, UniProt Q16552); assay: IL-17A inhibition cell assay (IL-6 production in NHDF, 50 ng/ml IL-17A); assay type: cell-based; conditions: NHDF cells in presence of IL-17A
T1 construct: purchased R&D Systems

[4] = target: T1, IL-17A; assay: Acute inflammation model: human IL-17A induced KC production in mice; assay type: in vivo, mouse; conditions: C57BL/6 mice, co-injected s.c. with 3 μg human IL-17A (17 μg 2C1, 16 μg wt), 2 hours
Description: Human IL-17A is able to bind and stimulate the mouse IL-17 receptor, leading to an elevation and subsequent secretion of mouse KC (CXCL1) chemokine (Allan B. et al. (2007) WO2007/070750 of Eli Lilly, US). The observed KC levels 2 hours after s.c. IL-17A injection (3 μg) were between […] in the serum, compared to around […] KC basal levels.
The blood samples were centrifuged for 10 min at 9500×g and the serum was stored at −20° until ELISA analysis was performed. KC levels in serum were determined using the commercially available Quantikine mouse CLCL1/KC kit (R&D Systems).
After 20-60 minutes, 3 μg/mouse of human IL-17A (R&D Systems) was injected s.c. and 2 hours after IL-17A injection, blood samples were taken from the vena saphena with the capillary Microvette CB 300 (Sarstedt). The blood samples were centrifuged for 10 min at 9500×g and the serum was stored at −20° until ELISA analysis was performed. KC levels in serum were determined using the commercially available Quantikine mouse CLCL1/KC kit (R&D Systems).

[5] = test system: Normal Human Dermal Fibroblasts (NHDF); assay: XTT viability of NHDF cells; assay type: cell-based; conditions: polypeptides at 750 nM, IL-17 receptor 10 nM, 24 hours
Description: IL-17A induces the production of IL-6 in fibroblasts in a dose-dependent manner (Yao et al. (1995) Immunity, 3, p. 811-821). […] Cell culture supernatants were taken after 24 h of stimulation and assayed for IL-6 with ELISA. […] Only viable and metabolic active cells are capable of reducing the tetrazolium salt XTT to orange-colored compounds of formazan (Scudiero, et al. (1988), Cancer Res. 48, p. 4827-4833).
400 μl of a cell suspension containing about 1×10^4 Normal Human Dermal Fibroblasts (PromoCell, NHDF-c, C12300) were distributed per well (24 well plate, Nunc or TPP) and cultured for 24 hours at 37° C. (medium: Fibroblast Growth Medium C-23010, PromoCell). […] After 24 hours incubation at 37° C. the supernatant was aspirated and the IL-6 concentration was determined by ELISA according to the manufacturer's instructions (IL-6 ELISA kit, R&D Systems). Immediately after the aspiration of the supernatant the XTT-containing medium was added (Cell Proliferation Kit II, Roche) and cell viability was determined according to the manufacturer's instructions.

T1 sequence (Q16552 20-155 limits assumed): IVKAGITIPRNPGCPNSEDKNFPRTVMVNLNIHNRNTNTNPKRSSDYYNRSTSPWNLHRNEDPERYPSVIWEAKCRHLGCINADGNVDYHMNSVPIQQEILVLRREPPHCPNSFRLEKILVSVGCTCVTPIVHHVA

**Q.** With adalimumab as the substance, how does the “half-life of other human antibodies in mice” value [1] read?
**A.** Its value is 102 to 193 h.

**Q.** Which results are given for “Fyn SH3 wt: wild type SH3 domain of Fyn kinase, SEQ ID NO: 1 (SEQ ID NO: 339 in Example 5)”?
**A.** accumulation in the tumor [2]: no enrichment; inhibition of IL-6 production [3]: no inhibition of IL-6 production; KC levels in mouse serum [4]: as high as in the group receiving IL-17A only

**Q.** For “IL-17A receptor-Fc chimera: commercially available human IL-17A receptor Fc chimera (R&D Systems)”, which “cell viability (XTT assay)” value [5] is on record?
**A.** Its value is “all cells were viable”.

— patent US9989536B2, “Specific and high affinity binding proteins comprising modified SH3 domains of FYN kinase” (EIDGENOESSISCHE TECHNISCHE HOCHSCHULE ZURICH, priority 2006, dated 2018)
